Source: patent US20050053993A1, “Uses of an endothelial cell receptor” (priority 2002, published 2005)
Ends that are not written are not given here. Peptide text beside a SMILES is read from it. * marks the point of attachment. Biotin = O=C1N[C@H]2[C@H](CS[C@H]2CCCCC(=O)*)N1

Key:
HMVEC = HMVEC (Homo sapiens, UniProt P11021); assay: VEGF-stimulated HMVEC migration (Boyden chamber); assay type: cell-based; conditions: for IC50: read-out: IC50 values, inhibition of VEGF stimulation HMVEC migration, 3 ng/ml VEGF, 4 hours at 37° C., 48 well Boyden chamber; for inhibition of migration of activated endothelial cells (in words): compared to rK5
Procedure: Endothelial cell migration assays: The effect of rK5 on endothelial cell migration was determined by two different methods. The first assay was performed in a 96 well plate with a cellulose membrane between the upper and lower chambers. HMVEC were starved of growth factors overnight, labeled with fluorescent calcein AM (50-100 nM), plated into a 96 well migration chamber (2.9×10^4/well) (Neuroprobe, Gaitherburg, Md.), and stimulated to migrate with VEGF (5 ng/mL). After 4 h, migrated cells were measured by fluorescence (Frevert C W, Wong V A, Goodman R B, Goodwin R, Martin T R. Rapid fluorescence-based measurement of neutrophil migration in vitro. J Immunol Methods. 1998 Apr. 1;213(1):41-52). In a second assay for cellular migration, a standard Boyden chamber was used (Polyerini, P. J., Bouck, N. P. & Rastinejad, F. Assay and purification of naturally occurring inhibitor of angiogenesis. Meth. Enzymol. 198, 440-450 (1991)). HMVEC cells were starved overnight in DME containing 0.1% bovine serum albumin (BSA) and harvested by scraping and resuspended in DME with 0.1% BSA at 1.5×10^6 cells per ml. Cells were added to the bottom of a 48-well, Boyden chamber. The chamber was assembled and inverted, and cells were allowed to attach for 2 hours at 37° C. to polycarbonate chemotaxis membranes (5 μm pore size) that had been soaked in 0.1% gelatin overnight and dried. The chamber was re-inverted, test substances, including activators were added to the wells of the upper chamber and the apparatus was incubated for 4 hours at 37° C. Growth factors were used, where indicated, at concentrations determined in preliminary experiments to give equivalent migration responses of about 100 cells migrated/high powered field (400×). […] Membranes were recovered, fixed and stained and the number of cells that had migrated to the upper chamber per 10 high power fields counted. Background migration to DME+0.1% BSA was subtracted and the data reported as the number of cells migrated per 10 high power fields (400×) or, when results from multiple experiments were combined, as the percent inhibition of migration compared to the positive growth factor control (Polyerini, P. J., Bouck, N. P. & Rastinejad, F. Assay and purification of naturally occurring inhibitor of angiogenesis. Meth. Enzymol. 198, 440-450 (1991)).

[1] = test system: EAHY cell surface proteins (~75 kDa and ~95 kDa); assay: S-tag-K5 affinity pull-down of biotinylated EAHY surface proteins; assay type: binding; conditions: 100 nM S-tag-K5; 1 μM peptides, 10 μM cold rK5
Procedure: The second method used to identify cell surface rK5 binding proteins was described previously (Zhang, J. C., et al, supra). Surface proteins on 4×10^6 EaHy cells were labeled with NHS-biotin. The cells were washed and lysed (M-Per, Pierce). Cell lysates were mixed with S-tag K5 for 1 hour at room temperature. S-tag K5 bound proteins were precipitated with S-protein agarose (Pierce). Bound proteins were eluted with excess rK5 or with excess PRKLYDY (SEQ ID NO:1) peptide. Eluted proteins were visualized with avidin-HRP and a chemiluminescent substrate. Mass spectroscopic analysis was used to identify the major protein bands.
In particular, surface proteins on 1×10^6 EAHY cells were labeled with NHS-biotin. The cells were washed 3× with PBS and lysed with M-pur. Cell lysates were mixed with (A) 100 nM S-tag-K5, (B) 100 nM S-tag-K5 plus 1 μM PRKLYDY, (C) 100 nM S-tag-K5 plus 10 μM cold rK5 and (D) 100 nM S-tag-K5 and N-terminal K5 peptide at 1 μM for 1 hour at room temperature. The K5 binding proteins were precipitated with S-protein-agarose. Bound proteins were eluted with 50 mM glycine buffer at pH 3.0 and run for PAGE analysis. Surface proteins (biotinylated) that bind K5 were visualized with avidin-HPR and a chemiluminescent substrate.

HMVECs = assay: Competition of 3HK5 binding to endothelial cells; set-up: species or system human; conditions: 2 nM 3HK5; rK5(K82A) up to 500 nM
Procedure: Each K5 peptide or a N-terminal antibody to GRP78 was added to HMVECs at various concentrations for 1 hour at room temperature. Cells were washed and the amount of ^3HK5 bound was counted.
Binding of human ^125IrK5 to Endothelial Cells: Tritium-labeled rK5 was added to monolayers of 50,000 HMVEC cells that were either starved or stimulated for 16 hours by 15 ng/ml bFGF and 5 ng/ml VEGF in 96 well plates. The number of counts remaining bound to the cells after extensive washing determined total amount of rK5 bound (Dudani A K, Ganz P R. Endothelial cell surface actin serves as a binding site for plasminogen, tissue plasminogen activator and lipoprotein(a). Br J Haematol. 1996 October; 95(1): 168-78). Binding of ^125IK5 (dog) to Endothelial Cells and rK5 to Recombinant GRP78: The same methods as described above for the expression and purification of human K5 were used to express dog rK5 in E. coli. ^125IK5 (dog) was added to the wells and incubated at room temperature for 1 hour. After 1 hour the cells were washed and lysed with M-Per (Pierce, Racine, Wis.) and the amount of ^125IK5 (dog) bound was counted. Scatchard plot analysis was performed using Prism (GraphPad Software, Inc., San Diego, Calif.) software. Competition binding against 5 nM ^125IK5 (dog) was tested using a monoclonal antibody against GRP78 (N-20, Santa Cruz, Calif.) or a monoclonal antibody against K5 (Green Mountain Antibodies, Burlington, Vt.). The antibodies were added to HMVECs at various concentrations for 1 hour at room temperature. Cells were washed and the amount of bound ^125IK5 (dog) bound was counted. Competition binding was also tested against 2 nM 3HK5. K5 peptides or a c-terminal antibody to GRP78 (A-129, Santa Cruz, Calif.) were added to HMVECs at various concentrations for 1 hour at room temperature. Cells were washed, lysed and the amount of ^3HK5 bound was estimated by scintillation counting.

GRP78 (bovine brain) = target: T1, GRP78 (bovine brain) (Bos taurus, UniProt Q0VCX2); assay: Ultracentrifugation binding of I125rK5(dog) with GRP78; conditions: 1 nM I125rK5(dog) + 1.5 nM GRP78; peptides 100 nM, rK5 1 nM
T1 construct: from tissue; host or cells: bovine brain
Procedure: Ultra centrifugation with 50,000 MW cut off filters was used with iodinated recombinant dog K5 (I^125rKS(dog)) and GRP78 (bovine brain). The GRP78 and I^125rK5 (dog) were incubated for 1 hour at room temperature. The solution was then transferred to ultracentrifuges and spun at 10,000×g for 2 min. The top chamber contained GRP78 (mw 78,000) and I^125rK5 (dog) that bound. The top and bottom solutions were counted for I125. Column A: 1 nM I^125rK5(dog). Column B: 1 nM I^125rK5 (dog)+1.5 nM GRP78. Column C: 1 nM I^125rK5(dog)+1.5 nM GRP78+100 nM N-terminal K5 peptide, LLPDVETPSEED. Column D: 1 nM I^125rK5(dog)+1.5 nM GRP78±100 nM active site K5 peptide PRKLYDY. Column E: 1 nM I^125rK5(dog)+1.5 nM GRP78+1 nM rK5 (unlabeled). The GRP78 bound to the labeled rK5 causing its retention on the top of the filter.

[2] = target: GRP78 on the surface of human cells (EAHY, HMVEC, HT1080) (human, UniProt P11021 19-654); assay: cell-based or functional assay
GRP78 on the surface of human cells (EAHY, HMVEC, HT1080), sequence (P11021 19-654): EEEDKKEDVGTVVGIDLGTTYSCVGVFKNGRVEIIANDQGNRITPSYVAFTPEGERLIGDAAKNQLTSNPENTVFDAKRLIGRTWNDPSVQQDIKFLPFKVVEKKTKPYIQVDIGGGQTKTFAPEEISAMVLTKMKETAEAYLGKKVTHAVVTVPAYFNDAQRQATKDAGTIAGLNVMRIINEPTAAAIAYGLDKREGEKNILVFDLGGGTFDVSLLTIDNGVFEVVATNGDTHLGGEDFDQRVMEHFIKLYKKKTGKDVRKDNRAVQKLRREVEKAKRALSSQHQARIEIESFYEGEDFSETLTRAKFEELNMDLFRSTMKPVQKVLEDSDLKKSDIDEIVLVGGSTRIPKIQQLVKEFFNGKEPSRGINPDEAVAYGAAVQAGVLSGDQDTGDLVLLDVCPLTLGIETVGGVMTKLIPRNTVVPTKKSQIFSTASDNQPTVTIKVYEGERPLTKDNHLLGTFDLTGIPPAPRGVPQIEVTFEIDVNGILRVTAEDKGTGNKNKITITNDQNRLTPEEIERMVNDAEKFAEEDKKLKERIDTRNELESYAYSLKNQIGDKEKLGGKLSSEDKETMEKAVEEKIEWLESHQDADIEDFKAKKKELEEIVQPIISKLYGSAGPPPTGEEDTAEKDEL

HMVEC, sequence (P11021 19-654): as above
T1 sequence (Q0VCX2 20-655): as the sequence (P11021 19-654) above, with I114V, G626S, D629E, T630A, E632D counted along it

## Ac-MFGNGKGYRGKRATTVTGTP-NH2
HMVEC
  IC50: > 1000 nM

## Ac-QDWAAQEPHRHSIFTPETNPRAGLEKNY-NH2
HMVEC
  IC50: > 1000 nM

## KLYD (listed as Homo sapiens)
HMVEC
  inhibition of migration of activated endothelial cells (in words): equally potent compared to rK5

## CC(C)C[C@H](NC(=O)[C@H](CCCCN)NC(=O)[C@H](CCCNC(=N)N)NC(=O)[C@@H]1CCCN1C(=O)CCCC[C@@H]1SC[C@@H]2NC(=O)N[C@@H]21)C(=O)N[C@@H](Cc1ccc(O)cc1)C(=O)N[C@@H](CC(=O)O)C(=O)N[C@@H](Cc1ccc(O)cc1)C(=O)O [Biotin-PRKLYDY] (Biotin-PRKLYDY-OH)
HMVEC
  inhibition of migration of activated endothelial cells (in words): similarly active

## PRKLYDY (listed as Homo sapiens)
[1]
  competition of protein binding to the S-tag K5 column: competed
HMVECs
  blocking of 3HK5 binding to endothelial cells: blocked
HMVEC
  inhibition of migration of activated endothelial cells (in words): equally potent compared to rK5
GRP78 (bovine brain)
  inhibition of I125rK5(dog) binding to GRP78: inhibited

## CC(=O)N[C@@H](CC(=O)O)C(=O)N[C@H](C(=O)N1CCC[C@H]1C(=O)N[C@@H](CCC(N)=O)C(N)=O)C(C)C [Ac-DVPQ-NH2] (Ac-DVPQ-NH2)
HMVEC
  IC50: > 1000 nM

## N-term-S-tag-Kringle 5: S-protein tagged rK5 used as probe for isolation of the cell surface receptor
HMVEC
  inhibition of migration of activated endothelial cells (in words): similarly active

## CC(=O)N[C@@H](CC(C)C)C(=O)N[C@@H](Cc1ccc(O)cc1)C(=O)N[C@@H](CC(=O)O)C(=O)N[C@@H](Cc1ccc(O)cc1)C(N)=O [Ac-LYDY-NH2] (Ac-LYDY-NH2)
HMVEC
  IC50: > 1000 nM

## LLPDVETPSEED (listed as Homo sapiens)
[1]
  competition of protein binding to the S-tag K5 column: did not inhibit
HMVECs
  blocking of 3HK5 binding to endothelial cells: not
GRP78 (bovine brain)
  inhibition of I125rK5(dog) binding to GRP78: not

## Ac-KLYDY-NH2 [Ac-KLYDY-NH2]
HMVEC
  inhibition of migration of activated endothelial cells (in words): equally potent compared to rK5

## Ac-VLLPDVETPSEED-NH2 [Ac-VLLPDVETPSEED-NH2]
HMVEC
  IC50: > 1000 nM

B1: Ac-YTTNPRKLYDY-HN2 (peptide)
peptide: Ac-YTTNPRKLYDY-NH2
[2]
  IC50, inhibition of VEGF stimulated HMVEC migration: 0.2 nM

B2: N-term-S-tag-Kringle 5 (ligand, human, UniProt P00747 481-560, looked up, not shown: small tags and cut ends)
chain: CMFGNGKGYRGKRATTVTGTPCQDWAAQEPHRHSIFTPETNPRAGLEKNYCRNPDGDVGGPWCYTTNPRKLYDYCDVPQC
[2]
  IC50, inhibition of VEGF stimulated HMVEC migration: 0.2 nM

B3: Ac-RNPDGDVGGPW-NH2 (peptide)
peptide: Ac-RNPDGDVGGPW-NH2
[2]
  IC50, inhibition of VEGF stimulated HMVEC migration: 0.5 nM

B4: Ac-QDWAAQEPHRHSIFTPETNPRAGLEKNY-NH2 (peptide)
peptide: Ac-QDWAAQEPHRHSIFTPETNPRAGLEKNY-NH2
[2]
  IC50, inhibition of VEGF stimulated HMVEC migration: > 1000 nM

B5: N-terminally biotinylated PRKLYDY peptide (peptide)
peptide: Biotin-PRKLYDY
[2]
  IC50, inhibition of VEGF stimulated HMVEC migration: 0.23 nM

B6: Ac-KLYDY-NH2 (peptide)
peptide: Ac-KLYDY-NH2
[2]
  IC50, inhibition of VEGF stimulated HMVEC migration: 0.1 nM

B7: Ac-MFGNGKGYRGKRATTVTGTP-NH2 (peptide)
peptide: Ac-MFGNGKGYRGKRATTVTGTP-NH2
[2]
  IC50, inhibition of VEGF stimulated HMVEC migration: > 1000 nM

B8: Ac-VLLPDVETPSEED-NH2 (peptide)
peptide: Ac-VLLPDVETPSEED-NH2
[2]
  IC50, inhibition of VEGF stimulated HMVEC migration: > 1000 nM

B9: Ac-LYDY-NH2 (peptide)
peptide: Ac-LYDY-NH2
[2]
  IC50, inhibition of VEGF stimulated HMVEC migration: > 1000 nM

B10: Ac-DVPQ-NH2 (peptide)
peptide: Ac-DVPQ-NH2
[2]
  IC50, inhibition of VEGF stimulated HMVEC migration: > 1000 nM

B11: Ac-RKLYDY-NH2 (peptide)
peptide: Ac-RKLYDY-NH2
[2]
  IC50, inhibition of VEGF stimulated HMVEC migration: 0.12 nM
